Test results published in the DeepSol protein solubility set.

assay: soluble on expression in E. coli; label from the status in PepcDB or PDB records

Sequence | soluble on expression in E. coli
APSYPEYTREEVGRHRSPEERVWVTHGTDVFDVTDFVELHPGGPDKILLAAGGALEPFWALYAVHGEPHVLELLQQYKVGELSPDEAPAAPDAQDPFAGDPPRHPGLRVNSQKPFNAEPPAELLAERFLTPNELFFTRNHLPVPAVEPSSYRLRVDGPGGGTLSLSLAELRSRFPKHEVTATLQCAGNRRSEMSRVRPVKGLPWDIGAISTARWGGARLRDVLLHAGFPEELQGEWHVCFEGLDADPGGAPYGASIPYGRALSPAADVLLAYEMNGTELPRDHGFPVRVVVPGVVGARSVKWLRRVAVSPDESPSHWQQNDFKGFSPCVDWDTVDYRTAPAIQELPVQSAVTQPRPGAAVPPGELTVKGYAWSGGGREVVRVDVSLDGGRTWKVARLMGDKAPPGRAWAWALWELTVPVEAGTELEIVCKAVDSSYNVQPDSVAPIWNLRGVLSTAWHRVRVSVQD | soluble
APYRMAYIKKDPVDDARGSTNPFVRIPELSDEDGLIVARGEYVYCLLNLFPYNSGHMMVVPYRQEPNLEDLTAEEISELFAFGQAAIKVVKSVSRPDAINVGFNLGRASGGSVGEHLHMHIVPRWSGDANFMTVIDGTKVLPQLLRKTRSLLAQAWNDMDG | not soluble
AQAVKEAASSDKPLIVAVTACTTGIAHIYMAEESLIKTGEKMSVNVRVETNGASGVGTPMTAEEINKAVGVIIAADKAVETACFNGKN | not soluble
AQGQTVYFHAWGGSQEINHYLQWANKELQSKYQVTLKHVKVSDISETIPRLIAEKAADKNTNGSVDMVWINGENFKSMKDNQLLFGPFTENLPSWKYVDKMLPIDVDFSEPTDGLEAPWGVGQLVFIHDSENLTNPPHSFAEMLSYAQKKPNSLSYPRPPEFHGTSVLKSMLIELTNNNPALQKPVSESDFNAVTAPLWDYLEKFHKVAWRGGKQFPAGTSETIQLLDDGQLDLAVTFNPNAVYSAQANGNLANTTKAYAMDSGALSNIHFLAIPWNAKASAGAQVAINFLLSPEAQSRKGDLNVWGDPSVLSSKYLTGSAKNTQQFKSVSEPHPSWQAAIEKEWLKRFGS | not soluble
ASNFEEFVLVDNGGTGDVKVAPSNFANGVAEWISSNSRSQAYKVTCSVRQSSANNRKYTVKVEVPKVATQVQGGVELPVAAWRSYMNMELTIPVFATNDDCALIVKALQGTFKTGNPIATAIAANSGIY | soluble
ASSSYYEQYHSLNEIYSWIEVMTERYPDMVEKIHIGSSYEKYPLYVLKVSKKEQRAKNAMWIDCGIHAREWISPAFCLWFVGSVTYYYGKEKMHTNLLKHMDFYIMPVVNVDGYDYTWKKDRMWRKNRSLHEKNACVGTDLNRNFASKHWCGEGASSSSCSEIYCGTYPESEPEVKAVADFLRRNIKHIKAYISMHSYSQKIVFPYSYSRSRSKDHEELSLVAREAVFAMENIHRNIRYTHGSGSESLYLAPGGSDDWIYDLGIKYSFTFELRDKGKYGFLLPESYIRPTCSEALVAVAKIASHVVKNV | soluble
ASTSRLDALPRVTCPNHPDAILVEDYRAGDMICPECGLVVGDRVIDVGSEWRTFSNDK | soluble
AVNEENIMIPKGVEVYEITGPYFFGIATKFEETMAQLGDRPNVRIIRMRKVPFIDSTGIHNLTTLCEMSQKEKITVILSGVNEKVYKVLEKSGFYELLGKENICPNFKIALDRAEEV | not soluble
AVSKVYARSVYDSRGNPTVEVELTTEKGVFRSIVPSGASTGVHEALEMRDGDKSKWMGKGVLHAVKNVNDVIAPAFVKADIDVKDQKAVDDFLISLDGTANKSKLGANAILGVSLAASRAAAAEKDVPLYKHLADLSKSKTSPYVLPVPFLNVLNGGSHAGGALALQEFMIAPTGAKTFAEALRIGSEVYHNLKSLTKKRYGASAGNVGDEGGVAPNIQTAEEALDLIVDAIKAAGHDGKVKIGLDCASSEFFKDGKYDLDFKNPNSDKSKWLTGPQLADLYHSLMKRYPIVSIEDPFAEDDWEAWSHFFKTAGIQIVADDLTVTNPKRIATAIEKKAADALLLKVNQIGTLSESIKAAQDSFAAGWGVMVSHRSGETEDTFIADLVVGLRTGQIKTGAPARSERLAKLNQLLRIEEELGDNAVFAGENFHHGDKL | soluble
AVVETAAMFDGTEGTLGRSMTLEDMELMTWAIFQSGQKIPAKVYSKILAQWDLYSYQMAVFHEAYDILLTPTVADVTPKHGQFALSESLQNQLKQIAYFDWPKQQELIWAMFADSLDWTSFTQRANLTGQPSISLPIYRNADGLSLGVQLTSAKGREDLLLLLAKQMEE | not soluble
CGKSEAPPPAQTPEVGIVTLEAQTVTLNTELPGRTNAFRIAEVRPQVNGIILKRLFKEGSDVKAGQQLYQIDPATYEADYQSAQANLASTQEQAQRYKLLVADQAVSKQQYADANAAYLQSKAAVEQARINLRYTKVLSPISGRIGRSAVTEGALVTNGQANAMATVQQLDPIYVDVTQPSTALLRLRRELASGQLERAGDNAAKVSLKLEDGSQYPLEGRLEFSEVSVDEGTGSVTIRAVFPNPNNELLPGMFVHAQLQEGVKQKAILAPQQGVTRDLKGQATALVVNAQNKVELRVIKADRVIGDKWLVTEGLNAGDKIITEGLQFVQPGVEVKTVPAKNVASAQKADAAPAKTDSKG | soluble
CIAGHSRGGLIALIAAALKGKWAIAVSAPSDRRKQKEYLSKFPPGTVQYNIYQDLMKMPEYELEYSSLSYADRLKKVLLIHGEDDEMVLKEHSITLCDTIKRMGGDCELHIIPKMKHTPLGQQYQTIWSIIEDWIKRNS | not soluble
CTCSPSHPQDAFCNSDIVIRAKVVGKKLVKEGPFGTLVYTIKQMKMYRGFTKMPHVQYIHTEASESLCGLKLEVNKYQYLLTGRVYDGKMYTGLCNFVERWDQLTLSQRKGLNYRYHLGCN | soluble
DAAGVSEVEVEATEIENLKAELSEMEDKFLRARAEIANMSNRNKNERELLVRYRSQDLGKKILPSIDNLERAMAIEVSDEQGESLKKGISMVLESITVALKEEG | not soluble
DCMFGNGKGYRGKRVTTVTGTPCQDWAAQEPHRHSIFTPETNPRAGLEKNYCRNPDGDVGGPWCYTTNPRKLYDYCDVPQCAAP | soluble
DDEFLRGKRVLVVDDNFISRKVATGKLKKMGVSEVEQCDSGKEALRLVTEGLTQREEQGSVDKLPFDYIFMDCQMPEMDGYEATREIRKVEKSYGVRTPIIAVSGHDPGSEEARETIQAGMDAFLDKSLNQLANVIREIESKR | soluble
DEEPMHYGNIMYDRRVIRGNTYALQTGPLLGRPDSLELQRQREARKRALARKQAQEQLRPQTPEPVEGRKHVDVQTELYLEEIADRIIEVDMECQTDAFLDRPPTPLFIPAKTGKDVATQILEGELFDFDLEVKPVLEVLVGKTIEQSLLEVMEEEELANLRASQREYEELRNSERAEVQRLEEQERRHREEKERRKKQQWEIMHKHNETSQKIAARAFAQRYLADLLPSVFGSLRDSGYFYDPIERDIEIGFLPWLMNEVEKTMEYSMVGRTVLDMLIREVVEKRLCMYE | not soluble
DFEIMAPVGSRESLAAAIQAGADSIYFGIESLNMRARSASTFTVNDLREIAQICDKHGIKSYLTINTIIYDEDIALMRTIVDAAKEAGISAVIAADVAVMAYCCEVGQEVHLSTQLNISNAGALKFYARFADVVVLARELNLKQVRVIYDTIQKEQIKGPNGELVRIEMFCHGALCMAVSGKCYLSLHEMNASANRGACMQICRRAYDVKDKESDIELEVDNKYIMSPKDLKTIHFMDEMIEAGVRVFKIEGRARGPEYVRTVVECYKEAICSYLEGTFTEEKKQAWDERLKTVFNRGFWNGYYLGQRLGEWSKNYGSEATERKVYVGKGIKYFSNIGVAEFLVEAAEMKVGDKLLITGPTTGAVFLTLDEARVDLKPVDVVRKGQHVSFKVPDKVRPSDKLYKLVSPEDLK | not soluble
DIELTQSPPSLPVSLGDQVSISCRSSQSLVSNNRRNYLHWYLQKPGQSPKLVIYKVSNRFSGVPDRFSGSGSGTDFTLKISRVAAEDLGLYFCSQSSHVPLTFGSGTKLEIKR | soluble
DIGCYTLGALPPYEAINSCVDMGASITMAKGAADAGLFPAVSVIGDSTFTHSGITGLLDAINENSNITVIISDNESISMTGGQHSSAYGKVEAICRGIGVDPDHIRELLPVPKNHDELCSIIREEINYEGVSVIIPRRVCIQKHARDAKAAKRAKA | not soluble
